Numbering of substitutions follows the chain as printed. One block for each binder: values may come before it.
Target: T1, recombinant, soluble his tagged human EGFR (Sino Biologicals) (human, UniProt P00533 25-645)
T1 construct: extracellular domain; also called human epidermal growth factor receptor; not shown: his tag
Test: BLI (ForteBio Octet Red), IgG on protein A tips, 100 nM soluble EGFR;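 note: antibody binding to EGFR read out as on and off rates plus equilibrium affinity, calculated with the Octet instrument software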

B1: CoDAH design C1 VH/C4 Vκ (antibody, V domains shown)
VH: QVQLQQSGPGLVKPSQTLSLTCTVSGFSLTNYGVHWVRQSPGKGLEWLGVIWSGGNTDYNTPFTSRLTISKDTSKNQVSLKLSSVTSNDTAVYYCARALTYYDYEFAYWGQGTLVTVSA
VL: DIVLTQSPVILSVSPGERVTFSCRASQSIGTNIHWYQQKPDQSPKLLIKYASESISGVPSRFSGSGSGTDFTLTINSVESEDIADYYCQQNNNWPTTFGQGTKLELKR
notes: Cross pair; Measured as full length IgG
binding result: binds

B4: CoDAH design C4 VH/C1 Vκ (antibody, V domains shown)
VH: B1 VH with T73N, N76S, S79F, L80F, L82M, S83N, V85L, T86Q
VL: B1 VL with V9D, I10F, L11Q, S14T, G16K, R18K, F21I, S22T, Q100A
notes: as for B1
binding result: binds

B5: CoDAH design C5 VH/C2 Vκ (antibody, V domains shown)
VH: QVQLQQSGPGLVKPSETLSITCTVSGFSLTNYGVHWVRQSPGKGLEWLGVIWSGGNTDYNTPFTSRLTINKDNSKSQVFFKMNSLQSNDTAVYYCARALTYYDYEFAYWGQGTLVTVSA
VL: B1 VL with I10F, S14T, R18K, F21I, S22T, Q100A
notes: as for B1
binding result: binds

B6: CoDAH design C4 VH/C2 Vκ (antibody, V domains shown)
VH: B5 VH with E16Q, I20L, N70S
VL: B1 VL with I10F, S14T, R18K, F21I, S22T, Q100A
notes: as for B1
binding result: binds

B7: CoDAH design C5 VH/C5 Vκ (antibody, V domains shown)
VH: B5 VH
VL: B1 VL with D1E, P40T, K45R, V58I
notes: Pareto optimal design; Measured as full length IgG
binding result: binds

B8: CoDAH design C3 VH/C3 Vκ (antibody, V domains shown)
VH: B1 VH with Q16E, K71V
VL: B1 VL with V3L, Q100A
notes: as for B7
binding result: binds

B10: CoDAH design C1 VH/C1 Vκ (antibody, V domains shown)
VH: B1 VH
VL: B1 VL with V9D, I10F, L11Q, S14T, G16K, R18K, F21I, S22T, Q100A
notes: as for B7
binding result: binds

B13: CoDAH design C1 VH/C2 Vκ (antibody, V domains shown)
VH: B1 VH
VL: B1 VL with I10F, S14T, R18K, F21I, S22T, Q100A
notes: as for B1
binding result: binds

B14: CoDAH design C2 VH/C1 Vκ (antibody, V domains shown)
VH: B1 VH with K71V
VL: B1 VL with V9D, I10F, L11Q, S14T, G16K, R18K, F21I, S22T, Q100A
notes: as for B1
binding result: binds

B16: CoDAH design C4 VH/C5 Vκ (antibody, V domains shown)
VH: B5 VH with E16Q, I20L, N70S
VL: B1 VL with D1E, P40T, K45R, V58I
notes: as for B1
binding result: binds

B18: CoDAH design C1 VH/C3 Vκ (antibody, V domains shown)
VH: B1 VH
VL: B1 VL with V3L, Q100A
notes: as for B1
binding result: binds

B19: CoDAH design C2 VH/C2 Vκ (antibody, V domains shown)
VH: B1 VH with K71V
VL: B1 VL with I10F, S14T, R18K, F21I, S22T, Q100A
notes: as for B7
binding result: binds

B20: CoDAH design C1 VH/C5 Vκ (antibody, V domains shown)
VH: B1 VH
VL: B1 VL with D1E, P40T, K45R, V58I
notes: as for B1
binding result: binds

B21: CoDAH design C3 VH/C4 Vκ (antibody, V domains shown)
VH: B1 VH with Q16E, K71V
VL: B1 VL
notes: as for B1
binding result: binds

Further lines, results first:

binding result: binds
B2: CoDAH design C5 VH/C1 Vκ (antibody, V domains shown)
VH: B5 VH
VL: B1 VL with V9D, I10F, L11Q, S14T, G16K, R18K, F21I, S22T, Q100A
notes: as for B1

binding result: binds
B3: CoDAH design C5 VH/C3 Vκ (antibody, V domains shown)
VH: B5 VH
VL: B1 VL with V3L, Q100A
notes: as for B1

binding result: binds
B9: CoDAH design C3 VH/C1 Vκ (antibody, V domains shown)
VH: B1 VH with Q16E, K71V
VL: B1 VL with V9D, I10F, L11Q, S14T, G16K, R18K, F21I, S22T, Q100A
notes: as for B1

binding result: binds
B11: CoDAH design C4 VH/C3 Vκ (antibody, V domains shown)
VH: B5 VH with E16Q, I20L, N70S
VL: B1 VL with V3L, Q100A
notes: as for B1

binding result: binds
B12: CoDAH design C3 VH/C2 Vκ (antibody, V domains shown)
VH: B1 VH with Q16E, K71V
VL: B1 VL with I10F, S14T, R18K, F21I, S22T, Q100A
notes: as for B1

binding result: binds
B15: CoDAH design C2 VH/C5 Vκ (antibody, V domains shown)
VH: B1 VH with K71V
VL: B1 VL with D1E, P40T, K45R, V58I
notes: as for B1

binding result: binds
B17: CoDAH design C5 VH/C4 Vκ (antibody, V domains shown)
VH: B5 VH
VL: B1 VL
notes: as for B1

binding result: binds
B22: CoDAH design C2 VH/C3 Vκ (antibody, V domains shown)
VH: B1 VH with K71V
VL: B1 VL with V3L, Q100A
notes: Cross pair; Measured as full length IgG; also called C3 Vκ/C2 VH

binding result: binds
B23: CoDAH design C3 VH/C5 Vκ (antibody, V domains shown)
VH: B1 VH with Q16E, K71V
VL: B1 VL with D1E, P40T, K45R, V58I
notes: as for B1

binding result: binds
B24: CoDAH design C4 VH/C4 Vκ (antibody, V domains shown)
VH: B5 VH with E16Q, I20L, N70S
VL: B1 VL
notes: as for B7

binding result: binds
B25: CoDAH design C2 VH/C4 Vκ (antibody, V domains shown)
VH: B1 VH with K71V
VL: B1 VL
notes: as for B1

Source: patent publication US20200317792A1 (INSMED, published 2020)
